Molecular target: Human CXCR7 (UniProt P25106 1-362)
Assay: FACS competition with biotinylated SDF-1

Chain of Human CXCR7 (P25106 whole entry): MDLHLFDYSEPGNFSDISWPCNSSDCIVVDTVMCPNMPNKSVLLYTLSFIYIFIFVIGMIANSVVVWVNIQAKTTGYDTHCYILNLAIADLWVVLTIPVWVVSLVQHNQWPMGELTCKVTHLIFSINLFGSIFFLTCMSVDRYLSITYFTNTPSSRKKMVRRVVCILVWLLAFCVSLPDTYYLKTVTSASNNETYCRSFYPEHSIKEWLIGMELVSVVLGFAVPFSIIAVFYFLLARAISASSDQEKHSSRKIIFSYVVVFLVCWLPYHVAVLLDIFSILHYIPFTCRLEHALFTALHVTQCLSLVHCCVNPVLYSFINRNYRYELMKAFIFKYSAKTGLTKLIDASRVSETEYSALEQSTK

IC50: 7.77 nM
B1: Nanobody 07C03 with Tag-1 (VHH)
VHH: EVQLVESGGGLVQAGESLTLSCAASGRTLSAYIMGWFRQAPGKEREFVAGIWSGGYTHLADSAKGRFSISRDNAKNTVYLQMNGLKPEDTAVYYCAAGLRGRQYSNWGQGTQVTVSS

— patent US20140178390A1 (published 2014)
